Test results taken from the supplement of paper PMC5998384.

Columns and labels:
[1] = tested on: HeLa Kyoto; assay: solubility change mitosis vs G1/S (difference of NP-40 vs SDS log2 ratios) (log2 ratio difference); higher = more soluble in mitosis
[2] = tested on: HeLa Kyoto; assay: thermal stability score vs G1/S (z-score of summed log2 fold changes over temperatures); higher = more thermally stable than in G1/S
[3] = tested on: HeLa Kyoto; assay: solubility in G1/S (NP-40 vs SDS abundance) (log2 ratio); higher = more soluble; details: cell cycle stage: G1/S
[4] = tested on: HeLa Kyoto; assay: melting temperature (median over replicates), in situ; higher = more thermally stable
[5] = cell cycle stage: early G1 (4.5 h after nocodazole release)
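For melting temperature (median over replicates), in situ in this document: HeLa Kyoto cells synchronized by double thymidine or nocodazole block, proteins quantified by TMT10plex mass spectrometry, three independent biological replicates.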
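For solubility change mitosis vs G1/S (difference of NP-40 vs SDS log2 ratios) in this document: synchronized HeLa Kyoto cells (double thymidine block for G1/S, nocodazole release for mitosis), protein amounts in NP-40 versus SDS lysates quantified by mass spectrometry, three biological replicates.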
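For solubility in G1/S (NP-40 vs SDS abundance) in this document: HeLa Kyoto cells arrested at G1/S by double thymidine block, proteins quantified by TMT10plex mass spectrometry in mild NP-40 versus SDS extracts, three biological replicates.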
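For thermal stability score vs G1/S (z-score of summed log2 fold changes over temperatures) in this document: synchronized HeLa Kyoto cells, proteins quantified by TMT10plex mass spectrometry, three biological replicates, mitosis taken 0.5 h after nocodazole release, G1/S directly after double thymidine block.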

Row | Sequence | solubility change mitosis (log2) [1] | thermal stability score [2, 5] | thermal stability score ([2]; cell cycle stage: mitosis) | solubility in G1/S (log2) [3] | melting temperature ([4]; cell cycle stage: G1/S) [°C] | melting temperature ([4]; cell cycle stage: mitosis) [°C]
1 | MEAEGSSAPARAGSGEGSDSAGGATLKAPKHLWRHEQHHQYPLRQPQFRLLHPHHHLPPPPPPSPQPQPQCPLQPPPPPPLPPPPPPPGAARGRYASSGATGRVRHRGYSDTERYLYCRAMDRTSYAVETGHRPGLKKSRMSWPSSFQGLRRFDVDNGTSAGRSPLDPMTSPGSGLILQANFVHSQRRESFLYRSDSDYDLSPKSMSRNSSIASDIHGDDLIVTPFAQVLASLRTVRNNFAALTNLQDRAPSKRSPMCNQPSINKATITEEAYQKLASETLEELDWCLDQLETLQTRHSVSEMASNKFKRMLNRELTHLSEMSRSGNQVSEFISNTFLDKQHEVEIPSPTQKEKEKKKRPMSQISGVKKLMHSSSLTNSSIPRFGVKTEQEDVLAKELEDVNKWGLHVFRIAELSGNRPLTVIMHTIFQERDLLKTFKIPVDTLITYLMTLEDHYHADVAYHNNIHAADVVQSTHVLLSTPALEAVFTDLEILAAIFASAIHDVDHPGVSNQFLINTNSELALMYNDSSVLENHHLAVGFKLLQEENCDIFQNLTKKQRQSLRKMVIDIVLATDMSKHMNLLADLKTMVETKKVTSSGVLLLDNYSDRIQVLQNMVHCADLSNPTKPLQLYRQWTDRIMEEFFRQGDRERERGMEISPMCDKHNASVEKSQVGFIDYIVHPLWETWADLVHPDAQDILDTLEDNREWYQSTIPQSPSPAPDDPEEGRQGQTEKFQFELTLEEDGESDTEKDSGSQVEEDTSCSDSKTLCTQDSESTEIPLDEQVEEEAVGEEEESQPEACVIDDRSPDT [PDE4D] | -0.23 | -2.8 | -4.75 | 0.0456 | 53.2 | 51.1
2 | MEANGLGPQGFPELKNDTFLRAAWGEETDYTPVWCMRQAGRYLPEFRETRAAQDFFSTCRSPEACCELTLQPLRRFPLDAAIIFSDILVVPQALGMEVTMVPGKGPSFPEPLREEQDLERLRDPEVVASELGYVFQAITLTRQRLAGRVPLIGFAGAPWTLMTYMVEGGGSSTMAQAKRWLYQRPQASHQLLRILTDALVPYLVGQVVAGAQALQLFESHAGHLGPQLFNKFALPYIRDVAKQVKARLREAGLAPVPMIIFAKDGHFALEELAQAGYEVVGLDWTVAPKKARECVGKTVTLQGNLDPCALYASEEEIGQLVKQMLDDFGPHRYIANLGHGLYPDMDPEHVGAFVDAVHKHSRLLRQN [UROD] | -0.193 | -0.168 | -0.608 | 0.254 | 56.5 | 56.7
3 | MEAPAAGLFLLLLLGTWAPAPGSASSEAPPLINEDVKRTVDLSSHLAKVTAEVVLAHLGGGSTSRATSFLLALEPELEARLAHLGVQVKGEDEEENNLEVRETKIKGKSGRFFTVKLPVALDPGAKISVIVETVYTHVLHPYPTQITQSEKQFVVFEGNHYFYSPYPTKTQTMRVKLASRNVESYTKLGNPTRSEDLLDYGPFRDVPAYSQDTFKVHYENNSPFLTITSMTRVIEVSHWGNIAVEENVDLKHTGAVLKGPFSRYDYQRQPDSGISSIRSFKTILPAAAQDVYYRDEIGNVSTSHLLILDDSVEMEIRPRFPLFGGWKTHYIVGYNLPSYEYLYNLGDQYALKMRFVDHVFDEQVIDSLTVKIILPEGAKNIEIDSPYEISRAPDELHYTYLDTFGRPVIVAYKKNLVEQHIQDIVVHYTFNKVLMLQEPLLVVAAFYILFFTVIIYVRLDFSITKDPAAEARMKVACITEQVLTLVNKRIGLYRHFDETVNRYKQSRDISTLNSGKKSLETEHKALTSEIALLQSRLKTEGSDLCDRVSEMQKLDAQVKELVLKSAVEAERLVAGKLKKDTYIENEKLISGKRQELVTKIDHILDAL [RPN1] | -0.0592 | 1.85 | 2.85 | 0.0559 | 53.2 | 53.6
4 | MEAPLQTGMMGTSSHGLATNSSGAKVAERDGFQDVLAPGEGSAGRICGAQPVPFVPQVLGVMIGAGVAVVVTAVLILLVVRRLRVPKTPAPDGPRYRFRKRDKVLFYGRKIMRKVSQSTSSLVDTSVSATSRPRMRKKLKMLNIAKKILRIQKETPTLQRKEPPPAVLEADLTEGDLANSHLPSEVLYMLKNVRVLGHFEKPLFLELCRHMVFQRLGQGDYVFRPGQPDASIYVVQDGLLELCLPGPDGKECVVKEVVPGDSVNSLLSILDVITGHQHPQRTVSARAARDSTVLRLPVEAFSAVFTKYPESLVRVVQIIMVRLQRVTFLALHNYLGLTNELFSHEIQPLRLFPSPGLPTRTSPVRGSKRMVSTSATDEPRETPGRPPDPTGAPLPGPTGDPVKPTSLETPSAPLLSRCVSMPGDISGLQGGPRSDFDMAYERGRISVSLQEEASGGSLAAPARTPTQEPREQPAGACEYSYCEDESATGGCPFGPYQGRQTSSIFEAAKQELAKLMRIEDPSLLNSRVLLHHAKAGTIIARQGDQDVSLHFVLWGCLHVYQRMIDKAEDVCLFVAQPGELVGQLAVLTGEPLIFTLRAQRDCTFLRISKSDFYEIMRAQPSVVLSAAHTVAARMSPFVRQMDFAIDWTAVEAGRALYRQGDRSDCTYIVLNGRLRSVIQRGSGKKELVGEYGRGDLIGVVEALTRQPRATTVHAVRDTELAKLPEGTLGHIKRRYPQVVTRLIHLLSQKILGNLQQLQGPFPAGSGLGVPPHSELTNPASNLATVAILPVCAEVPMVAFTLELQHALQAIGPTLLLNSDIIRARLGASALDSIQEFRLSGWLAQQEDAHRIVLYQTDASLTPWTVRCLRQADCILIVGLGDQEPTLGQLEQMLENTAVRALKQLVLLHREEGAGPTRTVEWLNMRSWCSGHLHLRCPRRLFSRRSPAKLHELYEKVFSRRADRHSDFSRLARVLTGNTIALVLGGGGARGCSHIGVLKALEEAGVPVDLVGGTSIGSFIGALYAEERSASRTKQRAREWAKSMTSVLEPVLDLTYPVTSMFTGSAFNRSIHRVFQDKQIEDLWLPYFNVTTDITASAMRVHKDGSLWRYVRASMTLSGYLPPLCDPKDGHLLMDGGYINNLPADIARSMGAKTVIAIDVGSQDETDLSTYGDSLSGWWLLWKRLNPWADKVKVPDMAEIQSRLAYVSCVRQLEVVKSSSYCEYLRPPIDCFKTMDFGKFDQIYDVGYQYGKAVFGGWSRGNVIEKMLTDRRSTDLNESRRADVLAFPSSGFTDLAEIVSRIEPPTSYVSDGCADGEESDCLTEYEEDAGPDCSRDEGGSPEGASPSTASEMEEEKSILRQRRCLPQEPPGSATDA [PNPLA6] | -0.0785 | -0.313 | -1.07 | -0.179 | 51.4 | 50.8
5 | MEAVLNELVSVEDLLKFEKKFQSEKAAGSVSKSTQFEYAWCLVRSKYNDDIRKGIVLLEELLPKGSKEEQRDYVFYLAVGNYRLKEYEKALKYVRGLLQTEPQNNQAKELERLIDKAMKKDGLVGMAIVGGMALGVAGLAGLIGLAVSKSKS [FIS1] | 0.251 | -2.36 | -0.553 | 0.15 | 54.2 | 53.8
6 | MECPHLSSSVCIAPDSAKFPNGSPSSWCCSVCRSNKSPWVCLTCSSVHCGRYVNGHAKKHYEDAQVPLTNHKKSEKQDKVQHTVCMDCSSYSTYCYRCDDFVVNDTKLGLVQKVREHLQNLENSAFTADRHKKRKLLENSTLNSKLLKVNGSTTAICATGLRNLGNTCFMNAILQSLSNIEQFCCYFKELPAVELRNGKTAGRRTYHTRSQGDNNVSLVEEFRKTLCALWQGSQTAFSPESLFYVVWKIMPNFRGYQQQDAHEFMRYLLDHLHLELQGGFNGVSRSAILQENSTLSASNKCCINGASTVVTAIFGGILQNEVNCLICGTESRKFDPFLDLSLDIPSQFRSKRSKNQENGPVCSLRDCLRSFTDLEELDETELYMCHKCKKKQKSTKKFWIQKLPKVLCLHLKRFHWTAYLRNKVDTYVEFPLRGLDMKCYLLEPENSGPESCLYDLAAVVVHHGSGVGSGHYTAYATHEGRWFHFNDSTVTLTDEETVVKAKAYILFYVEHQAKAGSDKL [USP3] | -0.13 | 0.817 | 1.54 | -0.0307 | 49.4 | 49.4
7 | MEDEMPKTLYVGNLSRDVTEALILQLFSQIGPCKNCKMIMDTAGNDPYCFVEFHEHRHAAAALAAMNGRKIMGKEVKVNWATTPSSQKKDTSSSTVVSTQRSQDHFHVFVGDLSPEITTEDIKAAFAPFGRISDARVVKDMATGKSKGYGFVSFFNKWDAENAIQQMGGQWLGGRQIRTNWATRKPPAPKSTYESNTKQLSYDEVVNQSSPSNCTVYCGGVTSGLTEQLMRQTFSPFGQIMEIRVFPDKGYSFVRFNSHESAAHAIVSVNGTTIEGHVVKCYWGKETLDMINPVQQQNQIGYPQPYGQWGQWYGNAQQIGQYMPNGWQVPAYGMYGQAWNQQGFNQTQSSAPWMGPNYGVQPPQGQNGSMLPNQPSGYRVAGYETQ [TIA1] | 0.0786 | -0.653 | -1.44 | 0.0405 | 53.5 | 53
8 | MEDHQHVPIDIQTSKLLDWLVDRRHCSLKWQSLVLTIREKINAAIQDMPESEEIAQLLSGSYIHYFHCLRILDLLKGTEASTKNIFGRYSSQRMKDWQEIIALYEKDNTYLVELSSLLVRNVNYEIPSLKKQIAKCQQLQQEYSRKEEECQAGAAEMREQFYHSCKQYGITGENVRGELLALVKDLPSQLAEIGAAAQQSLGEAIDVYQASVGFVCESPTEQVLPMLRFVQKRGNSTVYEWRTGTEPSVVERPHLEELPEQVAEDAIDWGDFGVEAVSEGTDSGISAEAAGIDWGIFPESDSKDPGGDGIDWGDDAVALQITVLEAGTQAPEGVARGPDALTLLEYTETRNQFLDELMELEIFLAQRAVELSEEADVLSVSQFQLAPAILQGQTKEKMVTMVSVLEDLIGKLTSLQLQHLFMILASPRYVDRVTEFLQQKLKQSQLLALKKELMVQKQQEALEEQAALEPKLDLLLEKTKELQKLIEADISKRYSGRPVNLMGTSL [CDK5RAP3] | -0.0399 | 1.2 | 2.62 | 0.203 | 49.5 | 49.4
9 | MEDLGENTMVLSTLRSLNNFISQRVEGGSGLDISTSAPGSLQMQYQQSMQLEERAEQIRSKSHLIQVEREKMQMELSHKRARVELERAASTSARNYEREVDRNQELLTRIRQLQEREAGAEEKMQEQLERNRQCQQNLDAASKRLREKEDSLAQAGETINALKGRISELQWSVMDQEMRVKRLESEKQELQEQLDLQHKKCQEANQKIQELQASQEARADHEQQIKDLEQKLSLQEQDAAIVKNMKSELVRLPRLERELKQLREESAHLREMRETNGLLQEELEGLQRKLGRQEKMQETLVGLELENERLLAKLQSWERLDQTMGLSIRTPEDLSRFVVELQQRELALKDKNSAVTSSARGLEKARQQLQEELRQVSGQLLEERKKRETHEALARRLQKRVLLLTKERDGMRAILGSYDSELTPAEYSPQLTRRMREAEDMVQKVHSHSAEMEAQLSQALEELGGQKQRADMLEMELKMLKSQSSSAEQSFLFSREEADTLRLKVEELEGERSRLEEEKRMLEAQLERRALQGDYDQSRTKVLHMSLNPTSVARQRLREDHSQLQAECERLRGLLRAMERGGTVPADLEAAAASLPSSKEVAELKKQVESAELKNQRLKEVFQTKIQEFRKACYTLTGYQIDITTENQYRLTSLYAEHPGDCLIFKATSPSGSKMQLLETEFSHTVGELIEVHLRRQDSIPAFLSSLTLELFSRQTVA [MAD1L1] | -0.0768 | 0.414 | 0.454 | 0.361 | 48.4 | 47.8
10 | MEDPQSKEPAGEAVALALLESPRPEGGEEPPRPSPEETQQCKFDGQETKGSKFITSSASDFSDPVYKEIAITNGCINRMSKEELRAKLSEFKLETRGVKDVLKKRLKNYYKKQKLMLKESNFADSYYDYICIIDFEATCEEGNPPEFVHEIIEFPVVLLNTHTLEIEDTFQQYVRPEINTQLSDFCISLTGITQDQVDRADTFPQVLKKVIDWMKLKELGTKYKYSLLTDGSWDMSKFLNIQCQLSRLKYPPFAKKWINIRKSYGNFYKVPRSQTKLTIMLEKLGMDYDGRPHCGLDDSKNIARIAVRMLQDGCELRINEKMHAGQLMSVSSSLPIEGTPPPQMPHFRK [ERI1] | -0.00712 | -0.616 | 0.0498 | -0.0987 | 51 | 49.9
